± gives the standard error. This sample holds only a part of the variants without activity.
B1: glmS ribozyme (parent)
chain: AUAAAAGCGCCAGAACUACAGAAAUGUAGUUGACGAGGAGGAGGUUUAUCGAAUUUUCGGCGGAUGCCUCCAAA

How the values were obtained:
Details in all cases: with glucosamine-6-phosphate
glucosamine-6-phosphate [1] = variants of: B1; assay: self-cleavage kobs at 40 uM GlcN6P; higher = faster cleavage; RNA array
In short: (§1)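 Glucosamine-6-phosphate (40 μM to 10 mM) in HEPES/KCl/Mg(OAc)2 buffer was flowed over sequenced MiSeq chips, and tiles were imaged over ~14 h. Barcoded ribozyme variants there had been transcribed in situ by E. coli RNA polymerase and were tracked through a hybridised Cy3 probe at 37 °C. One- or two-exponential decay fits to per-tile medians, normalised to baseline and to non-cleaving reference variants, gave kobs. kcat and KM came from weighted Michaelis–Menten fits across concentrations.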

glucosamine-6-phosphate [2] = variants of: B1; assay: self-cleavage kobs at 160 uM GlcN6P; higher = faster cleavage; RNA array
In short: as §1

glucosamine-6-phosphate [3] = variants of: B1; assay: self-cleavage kobs at 640 uM GlcN6P; higher = faster cleavage; RNA array
In short: as §1

glucosamine-6-phosphate [4] = variants of: B1; assay: self-cleavage kobs at 2500 uM GlcN6P; higher = faster cleavage; RNA array
In short: as §1

glucosamine-6-phosphate [5] = variants of: B1; assay: self-cleavage kobs at 10000 uM GlcN6P; higher = faster cleavage; RNA array
In short: as §1

| Variant | self-cleavage kobs at 40 uM GlcN6P (glucosamine-6-phosphate [1]) [s⁻¹] | self-cleavage kobs at 160 uM GlcN6P (glucosamine-6-phosphate [2]) [s⁻¹] | self-cleavage kobs at 640 uM GlcN6P (glucosamine-6-phosphate [3]) [s⁻¹] | self-cleavage kobs at 2500 uM GlcN6P (glucosamine-6-phosphate [4]) [s⁻¹] | self-cleavage kobs at 10000 uM GlcN6P (glucosamine-6-phosphate [5]) [s⁻¹] |
| --- | --- | --- | --- | --- | --- |
| C8G U54C | < 1e-05 | < 1e-05 | < 1e-05 | < 1e-05 | < 1e-05 |
| C8U G59C | < 1e-05 | – | < 1e-05 | < 1e-05 | < 1e-05 |
| C8A C34U G35U G43A U45G U54C | < 1e-05 | – | – | – | < 1e-05 |
| G9A G32A | < 1e-05 | – | < 1e-05 | < 1e-05 | < 1e-05 |
| G9A G13A G63C | < 1e-05 | – | – | – | < 1e-05 |
| C8U U69G | 0.000157 ± 3.4e-05 | – | 0.00216 ± 0.00095 | – | 0.000167 ± 3.1e-05 |
| G9A C11U | < 1e-05 | < 1e-05 | < 1e-05 | < 1e-05 | < 1e-05 |
| C8A C11U U46C A53U | < 1e-05 | – | – | – | – |
| C8A A53C | < 1e-05 | < 1e-05 | < 1e-05 | < 1e-05 | < 1e-05 |
| C8A A53U | < 1e-05 | < 1e-05 | < 1e-05 | < 1e-05 | < 1e-05 |
| C8A G26U A33C | < 1e-05 | – | – | – | – |
| G7U U69A | 3.92e-05 ± 1.7e-05 | 0.000853 ± 0.00032 | – | – | – |
| G7U U69G | 0.000114 ± 2.1e-05 | – | 0.000299 ± 7e-05 | 6.87e-05 ± 1.8e-05 | 0.000226 ± 8.9e-05 |
| C8A G37C U69G C71G | 0.000455 ± 0.00017 | – | – | – | – |
| G7U U45G C61A | < 1e-05 | – | – | – | < 1e-05 |
| C8A G32A G37A | < 1e-05 | – | – | – | – |
| C8U G41C | < 1e-05 | – | < 1e-05 | – | < 1e-05 |
| G7U C11U A33U G40C | < 1e-05 | – | – | < 1e-05 | < 1e-05 |
| G7U C16G A36C A42C A52G | < 1e-05 | – | – | – | – |
| G9A C10G G32U A48G | < 1e-05 | – | – | – | – |
| C8G G41U C61U | < 1e-05 | < 1e-05 | – | – | < 1e-05 |
| C8A A12G | < 1e-05 | < 1e-05 | < 1e-05 | < 1e-05 | < 1e-05 |

| Variant | self-cleavage kobs at 40 uM GlcN6P (glucosamine-6-phosphate [1]) [s⁻¹] | self-cleavage kobs at 160 uM GlcN6P (glucosamine-6-phosphate [2]) [s⁻¹] | self-cleavage kobs at 640 uM GlcN6P (glucosamine-6-phosphate [3]) [s⁻¹] | self-cleavage kobs at 2500 uM GlcN6P (glucosamine-6-phosphate [4]) [s⁻¹] | self-cleavage kobs at 10000 uM GlcN6P (glucosamine-6-phosphate [5]) [s⁻¹] |
| --- | --- | --- | --- | --- | --- |
| C8A A12U | < 1e-05 | – | < 1e-05 | < 1e-05 | < 1e-05 |
| G9A C11G G35U G37U C61U | < 1e-05 | – | – | < 1e-05 | – |
| C8G U54A C67A | < 1e-05 | – | – | – | – |
| G9A G13A G43U G60A | < 1e-05 | – | – | – | – |
| C8G G13A | < 1e-05 | – | < 1e-05 | < 1e-05 | < 1e-05 |
| C8U | < 1e-05 | < 1e-05 | < 1e-05 | < 1e-05 | – |
| C8G | < 1e-05 | < 1e-05 | < 1e-05 | < 1e-05 | < 1e-05 |
| G7U A52G C71U | < 1e-05 | – | – | – | – |
| C8G G13U G21A U30A | < 1e-05 | – | – | – | < 1e-05 |
| C8U U47A | < 1e-05 | < 1e-05 | < 1e-05 | – | < 1e-05 |
| C8U G37C | < 1e-05 | < 1e-05 | < 1e-05 | < 1e-05 | < 1e-05 |
| G7C G41U C50G | < 1e-05 | – | – | – | – |
| G7U A48G A64U | < 1e-05 | – | – | – | < 1e-05 |
| G9A C34U | < 1e-05 | – | < 1e-05 | – | < 1e-05 |
| G7U G43A | < 1e-05 | < 1e-05 | < 1e-05 | < 1e-05 | < 1e-05 |
| G7U G43C | < 1e-05 | < 1e-05 | < 1e-05 | – | – |
| G7U A14U U55C G63U C70A | < 1e-05 | – | < 1e-05 | < 1e-05 | – |
| G7U A36U U54A G62A | < 1e-05 | – | – | – | – |
| G7U C11U | < 1e-05 | < 1e-05 | < 1e-05 | < 1e-05 | < 1e-05 |
| C8A A15U U31A G41U C50U G51U G62A | < 1e-05 | – | – | < 1e-05 | < 1e-05 |
| C8U G35U | < 1e-05 | < 1e-05 | < 1e-05 | < 1e-05 | < 1e-05 |
| C8U G43U | < 1e-05 | < 1e-05 | – | < 1e-05 | < 1e-05 |

From the supplement of paper PMC7125110
